Data reported in paper PMC12280208 (Nature Communications, 2025).

Molecular target: MVP3-5 (MVP residues 102-274), wild type (human, UniProt Q14764 102-274)
Assay: SEC

Sequence of MVP3-5 (MVP residues 102-274), wild type (Q14764 102-274): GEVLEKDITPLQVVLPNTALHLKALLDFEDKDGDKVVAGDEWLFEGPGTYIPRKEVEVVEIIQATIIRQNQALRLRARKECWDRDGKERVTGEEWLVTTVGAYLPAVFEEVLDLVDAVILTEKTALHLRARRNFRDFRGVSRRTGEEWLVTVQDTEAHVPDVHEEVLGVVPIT

B1: PARP4 MINT domain (residues 1562-1724), wild type (domain or fragment)
chain: VCIQHWQDAVPWTELLSLQTEDGFWKLTPELGLILNLNTNGLHSFLKQKGIQSLGVKGRECLLDLIATMLVLQFIRTRLEKEGIVFKSLMKMDDASISRNIPWAFEAIKQASEWVRRTEGQYPSICPRLELGNDWDSATKQLLGLQPISTVSPLHRVLHYSQG
binding result: binds
